16 sequences from the DeepSol protein solubility set can be followed below.

The nature of the data set: soluble on expression in E. coli; label from the status in PepcDB or PDB records.
As to “MGSDKIHHHHHHMKTVKTHITQLLHAMNKGIFEKEHPIALSLLSAISGESIFFLGPPGVAKSLIARRLKLAFDQSTAFEYLMSRFSTPDEIFGPVSISKLKDEDKYERIIEGYLPSATIVFLDEIWKAGPSIQNSLLTVINEKVYRNGQYTIQLPLKGLIAASNELPAQGEGLEALWDRFLIRYFIGNIEQEFAFDQMIASVNDMEAEIPTGLSITEEQYTDWRTQISQIKIHYTVFELIHSIKRQIEKYNIQKEEVPHSTLYISDRRWKKIISLLRTSAFLNETDTIRFSDCTLLLHCLWNEIEQIPIIEQMVSSALDECISHYLCGERTLEQKLSSIREDMKSEHSLRETKDPALQIVDTFYHQIERYPVAGNLLIFASDYQSLQKDTQKLFYVQRDKYRPVNWILKVYDHVRNRNISQSAIVSLKKGTRSVFINNQEYPLACNAGYDIAYPQEASLPFEFRFQEVIDLYHNRENELKRMTDIELTYCKEHLFMDDKQRNMVKQILNRQKEMLEIYQNEIREIAYTHGLENKEY”, the “soluble on expression in E. coli” value is on record as “not soluble”. Consider “MGSDKIHHHHHHMKTVLDVKNLSVDFAQDGRIVHAVRGVSFHVGKGETVALVGESGSGKSVTALSSVDLLPPSAQLNGSITYNGEQMIGASEAALRRVRGNDISFIFQEPMTSLNPLHTLERQITESLTLHQGLRGQAARDRIIQLLTKVGIRDPETRLGAYPHQLSGGQRQRVMIAMALANGPELLIADEPTTALDVTIQAQILDLLAELKRRERMSLLFITHDLAIVRRIADRVCVMQGGEIVEQGPTKTIFDNPQHPYTQKLLGAEPSGRPDPVPEDAKEILTTDKLRIWFPIQRGLLRRTVGHVKAVNEATLSVRQGETLGVVGESGSGKTTLALAIMRLIRSEGPIDFMDQHIPSLGKTELRTLRRDIQIVFQDPFGSLSPRMTIEQIVAEGLTVQGVNSTGRRRRVSEILEEVGLDPAMMHRYPHEFSGGQRQRIAIARAMILRPKLVVLDEPTSALDMTVQVQIVDLLRRLQRDHKLAFLFISHDLKVVRALSHKVMVMKQGDVVEAGRTEDLFANPRTTYTRELMKAAFGDASAA”, for which the “soluble on expression in E. coli” value is recorded as “not soluble”. With “MGSDKIHHHHHHMKTWTPDLSRSDGPRYLAIADVIEMDLKSGRLLVGDRLPPQRDLAKRLAIDFTTVARGYVEAQKRGLVATHVGRGTFVTGGPEKERRGFVSEAALDARRMSVVDFSMNMPPEPDDPDLLARMQEGLSAVATNMIPLLRYQGFGGAGMDKEAAASWLSRRGLVPSQERIFVTPGAHPALLAIFGLLAKPGEMVLSENITYPGMRSIAAQLRLNLTGLPMDADGIIPGAFAEICETAKPKALYLNPTLQNPMTLTIPEKRREEICAVARKYHVPIVEDDAYGFIPLHSPAPLAAMAPDLTWHIGGLAKCIGAGLRLAYVVVPDTKAAWPFASAMRAASVMASPLSAALATRWIEDGTADSILRFIRTEAAARQALVAEVLPAGSYQSDPISFNIWLPLTNGWTRSTFGTHMRASGIGVVASDAFTVDGVAEEAVRVCLGGPIRRETLKGALEFMGHALEGSPQMAGTFF” the entry was “not soluble”; with “MGSDKIHHHHHHMKTYLVGGSVRDEILGLPVTDHDYVVVGVSPEEMVHLGFRPVGKDFPVFLHPQSQEQYALARTERKVSRGYKGFEVYASPEVTLQEDLARRDLTINAIAKDEYGNIIDPFGGIADLEAGVLRHIGPAFTEDPVRVLRTARFAARFGFHIAPETLALMNEMVHNGEVDALVSERVWQEIARGLMERHPSRMFYALRDCGALTRIMPEVDALFGVPQPPQHHPEIDTGVHVMMVIDYAASRNYSLQVRFAALTHDLGKGTTPPEEWPRHIGHEARSVRLVQGLCERINPPNEMRNLALLVARYHGDVHRAAELRPVTIANLLQGVDAYRKPERFEEFLQACACDFHGRPGYATRPYPQADRLREAFQAARSVDAGAIAKEMARNVSDPSRLPVAINTRVSETRIAEIRNRLGSLA”, “not soluble”; with “MGSDKIHHHHHHMKVAIVHYWFVGMRGGEKVIEALCELYPQADIFTHVFVPEAVSDRIRRHRVTTSFINSLPRASSMYKSYLPLMPLALEHLDLSGYDLVISSESGPAKGIIPPPDALHVCYCHTPMRYIWNMYHDYRNGAGRLTKLLMPPLAHYLRMWDVSTASRVDSFIANSATVADRVRRYYRRDSVVIHPPVDTAVFTPVPASELGDYYLMAGELVAYKRPDLAVQAFNQIGRKLVVIGGGEMLNELKRIAGPNVTVMGSQPFEVLRHHYMHCRALIFPGEEDFGMVPVEAMAAGRPVIAFGKGGATETVVPGLSGLFFQAQEVEQIRSAILQLDDIEIDPAKISSHAARFGKQAFFDGFRSHIDQLLAAKAQATARNRG”, “not soluble”. As for “MGSDKIHHHHHHMKVAKFGGSSLASASQIKKVFDIVQADKQRKFIVVSAPGKRSGADTKVTDALIAYYKAYKSADEKGIHYYQNWIIERFREIYDELGLKSPVINQIAENINHLAQLDLDNVFTYDTFLAAGENNNAKLVADFFNHSGLPSRYVHPSDAGIMVSSDPGNARLLGGAYEHIKYLNELEETLIIPGFFGITKEGEVCTFSRGGSDITGSIIAAGVRAELYENFTDVNGIFAAHPGIVKNPAYISELTYREMRELAYSGFSVLHDEALVPAYRAHVPLVIKNTNNPDHPGTKIVVQRETKGSPVVGIASSSAFSSLYVSKYLMNREVGFGRKVLSVLENLGVRFEHMPTGIDDMSIIIRSRYLTQPISKALISNLTESLHPDEVYIDRDFSIITIVGEDMKEHVGVTARATAALSKQGISIAMLSQGSSEVSVMFIVKEKYEKEALKAIYSAFFD”, the entry is “not soluble”; as for “MGSDKIHHHHHHMKVLEGIRVLDFGRFIAGPFCAALLADFGADVIRIDRVGGSEDRFVAPVTSEGEGAFFLQVNRNKRSITLDLDSEEGQAVVRKLLLNTDVVVANMPPRTIAALGLDYESLRKVKPDIILTASSAFGADPAVRDRVGFDGVGQAMSGAVHLTGLPDHPMKSMVPVVDFSTALCCALGTMMALYERKSSGQGQEVGASLLHTALTLSSGSLIEEALRGLNRQATVNRSPTYGPSDIFRVKDGWIIAQVIGPAMFKRWTRMVGRPELLDDPRFADDAMRGEHGEVLSDIMSDWCAGRTREEALAILEGARIPGGPVNTPRQALEDEVVRASGAFHGVDYPGAAAQVPLVATPVSLSRTAPAIARRPPTAGEHTEEVLRDAGYAPGEIVALRERGVI”, “not soluble”; as for “MGSDKIHHHHHHMKVQYECLTCMANQCQRIVEMATQDMDIRRRAMILAAKLLAKEYNENAIPAIAGSLIFLELYKFLGNDDPFIEYKLKSEEMARKVADIIKRKLKLDFELAVKLAIIGNVIDFSVGFSPEDLEEEVEKMLKDKLYIDDSKELFEEVKRAENILYITDNVGEHYFDAILIEKIREISNAEVYIAGKEGPIINDATVEDLKRAGLEKLGKVISTGTRIVGVPLKLVSREFMEAFNKADVIIAKGQGNFETLSEINDSRIFFLLKAKCPAVARELKVPKGALVCMRNKFKL”, “soluble”.

“MGSDKIHHHHHHMKWNWQQPDWPDFRWNSEALAVHEARFLQQSGIMIGVVKHLGDEDRTSVVLDVMTDEAMKTSQIEGELLNRDSVQSSLRREFGLETEARRIPPAERGIAEMMMALFRDFAAPLTEEVLGDWHRLVLSGRSDIDVVGRYREHEDAMQVVSGALHKPTVHFEAPPSREMAAEMARFLEWFAATGPGGATPLPGLTRSGLAHLYFVTIHPFEDGNGRIGRAIAEKALSQAIGQPSLIALSQTIQRRRSAYYDALEAANKSNEISDWLAYWAETVLDAQTHSLALIDFLLEKTRFHDRYRGKLNPRQEKVIARMFREGLDGFKGGLSAANYITIADTSRATATRDLQELVALGAMGQTGTLKATRYHLILDAVAGTNPPVNQA”: the “soluble on expression in E. coli” value is “not soluble”.

As for “MGSDKIHHHHHHMKYTFNEEKAFDIVAIGRACIDLNAVEYNRPMEETMTFSKYVGGSPANIAIGSAKLGLKAGFIGKIPDDQHGRFIESYMRKTGVDTTQMIVDQDGHKAGLAFTEILSPEECSILMYRDDVADLYLEPSEVSEDYIANAKMLLVSGTALAKSPSREAVLKAVQYAKKHQVKVVFELDYRPYTWQSSDETAVYYSLVAEQSDIVIGTRDEFDVMENRTGGSNEESVNHLFGHSADLVVIKHGVEGSYAYSKSGEVFRAQAYKTKVLKTFGAGDSYASAFIYGLVSGKDIETALKYGSASASIVVSKHSSSEAMPTAEEIEQLIEAQS”, the “soluble on expression in E. coli” value is “not soluble”. As to “MGSDKIHHHHHHMLCQFSFKNFKSYKETTTFDFQATSIPEFSESLLKSEKADALLPVGVIYGPNGGGKTNLLLALSCLISTVVKPIYELEKAREKIIIQQKISAAPFYFNEISRKMPTEFEVYFRQGKNEYRYNLSICGDDIVEESLYWKAIGGKRTGMVFDREGAEITLGASINKASINRSVNPKMPYLSFLAINYDIPVIVEVQKWFESCIVKNYANPIADRQIMFSDDESYRKRIVRALNDVDIDVSGYRYDEENHELYTQRMIEGKIYELSFNDESDGTKKMIAALPVILLALQEGRLVIIDELDAKLHPKLLRYVISLFKNKNVNKKGAQLLFTSHDMTTMKNTVFRRDEIWFAAENERHESEIYSLYEIRRENNERVNSTAAYDKQYLEGRYGADPYLTNMLAGGEWL”, the “soluble on expression in E. coli” value is “not soluble”.

Turning to “MGSDKIHHHHHHMLDKKTNIATDDPKAWLAQHGINEVECLVPDMNGVLRGKALPTAKFLKALEDRALYLPSSAFLVSIDGRYSGSIDEGFAYSDPDMRMVPDVSTLCLAPGAGAGKAYVFADAFHMDGRPWMASPRHVLRAVLDLYRQRGWRAVVAPEVEFYLTAPNPDPDRPLTAPVGANGRAEGVQHPYDMVALEEFEPVIRRVYDYAAAAGLPLDTLIHESGTAQLEINLLHGDALPLADQVLLFKRLTRQAAQQCGMHATFMAKPIAAQAGSSMHLHMSVVDEAGNALFASDDDADTEMFGHFIGGLQTYVPEIMPLFAPNVNSFRRIRPNHSAPANIEWSHDNRSCGLRVPAGGRSARRVENRLPGADSNPYLAIAGSLLAGYLGVQQKLARSAEASGNAYKIKSTLPKTMEEALDRFTACEPVRKLLGEDFSQTYLRVKSVELDLFQSVVTSWERDHLLLKV”, the “soluble on expression in E. coli” value is recorded as “not soluble”. For “MGSDKIHHHHHHMLEIGFCTLEDQCPYLKDKRSRIEYKYIENCPKEINNELIKRGWRRFGRYFSRPICKDCDECLSLRILVNEYNFSRSERRVVNKNINTKVILRTPNLSNEHLFLYDKYHRFMEEKKNWKRYDLSFKQYYNLYVDGFMNFGYELAFYIEDKLVCVDLIDILEDGISSIYCFYDPDFSYFSLGKFSLLNEIQIAKKMNLDYIYLGYFVKKCQSLSYKADYTPNEILKGTKELFENEVLWEK”, the “soluble on expression in E. coli” value was “not soluble”. As for “MGSDKIHHHHHHMLELKHNFIFEDQPVAWGCMGQGPALVLIHGTPFSSQVWRRIAPLLSSHWTVYYYDMVGYGQSHKSAGQQVSLGGQDRLLAALLKEWKLTRPDILCHDFGGATALRGYFLQGLRYASLTLFDAVAISPWGSPFVAHVRKHQDAFTGLPKYAHDALLSAYLQGAAYQPLSEEALNIYMSPWQGEVGQAAFYRQIAQMDQCYTDDIEPLLTELDCPVNMLWGEQDEWIPLEVGKRLAHRLGDAPLQIVKNAGHLVQEDAPEAIVQSMYSLLLKRAGTSSSR”, the entry is “not soluble”; as for “MGSDKIHHHHHHMLETYALKNGAVFISDAHFLPKSPHLIHTLKELLSAKPPQVFFMGDIFHVLVGYLPLDKEQQKIIDLIHALSEISQVFYFEGNHDFSMRFVFNSKVMVFERQNQPVLFQYDNKRFLLAHGDLFITKAYEFYITQLTSTWARFFLTFLNLLSFKTLYPLFKKLIYQKPVRLWELEPKELQSFIEKRLKAYQNYIKDLNIGSIDGIIEGHFHLKSGAKIPLNTPIYCPLPSFYYEQSLFKVSSSVLEPSQNKDA”, “not soluble”; as for “MGSDKIHHHHHHMLIQIADLFTPAEAAQIRARLEAADWVDGKVTAGYQSAQVKHNRQLSEQHPLAQELGGLILQRLAANNLFMSAALPRKIFPPLFNRYEGGEAFGYHVDNALRPVPGTAERVRTDLSATLFFSEPDSYDGGELVVDDTYGPRTVKLPAGHMVLYPGTSLHKVTPVTRGARISAFFWLQSLVREDSQRSLLLEMDVAIQRLNQDTPGHASIVQLTGVYHNLLRRWTDV”, “not soluble”.
